Results published in article PMC3799952 (Biochemistry, 2013).
Where a chain is given by its changes, count along the chain named. Names may count otherwise.

B1: amino terminus-truncated recombinant human aromatase, wild type (enzyme)
chain: MAKKTSSKGRNYEGTSSIPGPGYCMGIGPLISHGRFLWMGIGSACNYYNRVYGEFMRVWISGEETLIISKSSSMFHIMKHNHYSSRFGSKLGLQCIGMHEKGIIFNNNPELWKTTRPFFMKALSGPGLVRMVTVCAESLKTHLDRLEEVTNESGYVDVLTLLRRVMLDTSNTLFLRIPLDESAIVVKIQGYFDAWQALLIKPDIFFKISWLYKKYEKSVKDLKDAIEVLIAEKRRRISTEEKLEECMDFATELILAEKRGDLTRENVNQCILEMLIAAPDTMSVSLFFMLFLIAKHPNVEEAIIKEIQTVIGERDIKIDDIQKLKVMENFIYESMRYQPVVDLVMRKALEDDVIDGYPVKKGTNIILNIGRMHRLEFFPKPNEFTLENFAKNVPYRYFQPFGFGPRGCAGKYIAMVMMKAILVTLLRRFHVKTLQGQCVESIQKIHDLSLHPDETKNMLEMIFTPRNSDRCLEH
B2: rArom E181K (enzyme, human)
chain: B1 chain with E152K
B3: rArom E181A (enzyme, human)
chain: B1 chain with E152A

Biological target: the molecule itself
Experiment: native gel or EMSA

First: B1
Second: B2
The “stoichiometry N” value of the first is higher: 5 for the first, 2 for the second.

In the case of B3, the “stoichiometry N” value is reported as 2.
